In test [1] the target is T1, murine ENTPD3 expressed on HEK293T cells (mouse, UniProt Q8BFW6 1-529).
T1 construct: Transiently transfected HEK293T cells (vector with eGFP behind a P2A site); also called mENTPD3; mouse ENTPD3
T1 sequence: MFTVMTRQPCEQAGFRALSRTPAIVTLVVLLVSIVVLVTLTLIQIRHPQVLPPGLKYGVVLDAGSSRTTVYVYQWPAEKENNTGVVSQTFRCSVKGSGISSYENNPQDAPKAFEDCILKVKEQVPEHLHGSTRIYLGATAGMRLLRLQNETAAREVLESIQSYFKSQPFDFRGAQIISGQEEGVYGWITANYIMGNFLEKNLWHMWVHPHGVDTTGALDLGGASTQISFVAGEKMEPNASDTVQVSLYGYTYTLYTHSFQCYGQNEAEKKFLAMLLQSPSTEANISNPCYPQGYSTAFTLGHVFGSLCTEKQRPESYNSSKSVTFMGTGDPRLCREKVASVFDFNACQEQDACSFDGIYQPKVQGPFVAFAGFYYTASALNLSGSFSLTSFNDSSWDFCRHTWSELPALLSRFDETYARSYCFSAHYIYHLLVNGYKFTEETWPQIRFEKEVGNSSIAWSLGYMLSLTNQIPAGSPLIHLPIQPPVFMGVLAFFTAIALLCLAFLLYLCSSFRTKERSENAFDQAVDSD
The experiment in a line: flow cytometry; soluble scFv on transfected HEK293T cells; anti-His PE. As for the experimental part: (§1) scFv binders initially obtained by phage display cell panning were screened first for recognition of ENTPD3 expressed on cells. Therefore, soluble scFv were produced in E. coli and used to stain HEK293T cells transiently transfected with a vector expressing the recombinant protein and eGFP downstream separated by a P2A site. Secondary staining was performed by PE staining the His-Tag of soluble scFv. Cells were measured in flow cytometry for GFP (antigen expression) and PE (scFv binding).
A general note: Flow cytometry measures light scatter and fluorescence of single cells or particles in a stream.

Test [2] concerns the target T2, human ENTPD3 (Ectonucleoside triphosphate diphosphohydrolase 3) expressed on cells (human, UniProt O75355 1-529).
T2 construct: also called hENTPD3; huENTPD3
T2 sequence: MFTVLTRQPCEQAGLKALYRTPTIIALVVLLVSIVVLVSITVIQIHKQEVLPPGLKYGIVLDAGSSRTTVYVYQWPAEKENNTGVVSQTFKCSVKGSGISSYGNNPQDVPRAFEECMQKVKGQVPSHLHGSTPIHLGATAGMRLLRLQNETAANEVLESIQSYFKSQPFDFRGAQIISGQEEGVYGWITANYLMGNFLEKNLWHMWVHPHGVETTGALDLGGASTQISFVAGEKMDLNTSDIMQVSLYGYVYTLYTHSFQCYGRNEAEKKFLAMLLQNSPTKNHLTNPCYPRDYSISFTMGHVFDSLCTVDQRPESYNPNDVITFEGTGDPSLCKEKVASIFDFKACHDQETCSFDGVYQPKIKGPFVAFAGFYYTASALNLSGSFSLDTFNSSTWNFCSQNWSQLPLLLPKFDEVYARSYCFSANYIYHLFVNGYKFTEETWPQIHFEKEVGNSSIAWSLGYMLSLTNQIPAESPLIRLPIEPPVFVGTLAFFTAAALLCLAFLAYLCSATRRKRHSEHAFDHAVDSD
Described as above. On the procedure:
as §1

In test [3] the target is T2, human ENTPD3 (Ectonucleoside …). The experiment in a line: cell-based or functional assay.
For test [4] the target is unchanged. The test can be described thus: cell-based or functional assay. This is another data set of the same source.

B1: hg012-A8 scFv (scFv)
scFv: QVTLKESGGGLVQPGRSLRLSCAASGFTFDDYAMHWVRQAPGKGLEWVSGISWNSGSIGYADSVKGRFTISRDNAKNSLYLQMNSLRAEDTALYYCAKGANYDILTGYRKDNWFDPWGQGTLVTVSSGSASAPKLEEGEFSEARVLPVLTQPPSASGTPGQKVTISCSGSSSNIGSNYVFWYEQLPGAAPKLLMYSSNQRPSGVPDRFSGSKSGTSASLAISGLRSEDEADYYCAAWDDSLSGWVFGGGTKLTVLGQPKAAPSVTLFPPSSAAAGSEQKLISEEDLSHHHHHH
notes: Soluble scFv made in E. coli, with Myc tag and His tag
For B1, the binding result in test [1] was “no binding”.

B2: hg012-C6 scFv (scFv)
scFv: EVQLVQSGGGLVQPGRSLRLSCTASGFTFGDYAMSWVRQAPGKGLEWVGFIRSKAYGGTTEYAASVKGRFTISRDDSKSIAYLQMNSLKTEDTAVYYCTRVPVVAGWYNWFDPWGQGTLVTVSSGSASAPKLEEGEFSEARVQSVLTQPPSASGTPGQRVTISCSGSSSNIGSNYVYWYQQLPGTAPKLLIYRNNQRPSGVPDRFSGSKSGNTASLTVSGLQAGDEADYYCSSYAGSNNVVFGGGTKLAVLGQPKAAPSVTLFPPSSAAAGSEQKLISEEDLSHHHHHH
notes: as for B1
In the case of B2, the figures for the binding result in test [1] and in test [2] were “no binding” and “binds”, respectively.

B3: hg012-B7 scFv (scFv)
scFv: QVQLQQSGAEVKKPGASVKVSCKASGYTFTSYAMHWVRQAPGQRLEWMGWINAGNGNTKYSQKLQGRVTITRDTSASTAYMELSSLRSEDTAVYYCARDSGYDLFDYWGQGTLVTVSSGSASAPKLEEGEFSEARVQAVVTQEPSFSVSPGGTVTLTCGLTSGSVSTTYYPSWYQQTPGQTPRTLIYKTNLRSPGVPDRFSGSILGNKAALTITGAQADDDSDYYCLLYMGSGVWVFGGGTRLTVLGQPKAAPSVTLFPPSSAAAGSEQKLISEEDLSHHHHHH
notes: as for B1
As to B3, the binding result is on record as “no binding” in test [1] and “binds” in test [2].

B4: hg012-F10 scFv (scFv)
scFv: QMQLVQSGGGVVQPGRSLRLSCAASGFTFSSYGMHWVRQAPGKGLERVAVISYDGSNKYYADSVKGRFTISRDNSKNTLYLQMNSLRAEDTALYYCAKDHHPYGSSDSFDYWGQGTLVTVSSGSASAPKLEEGEFSEARVQAVVTQEPSLTVSPGGTVTLTCGSSTGAVTRGHYPYWLQQKPGQAPRTLIYDTVKKHSWTPARFSGSLVGGKAALTLSGAQPEDEADYYCLLSFIDTRYPARYVFGTGTKVTVLGQPKANPTVTLFPPSSAAAGSEQKLISEEDLSHHHHHH
notes: as for B1
Regarding B4, the binding result in test [1] is recorded as “no binding”.

B5: CAR 2-CD8 (antigen binding domain from binder B2, CD8 hinge) (other)
chain: QVQLVQSGGGVVQPGRSLRLSCAASGFTFSSYAMSWVRQAPGKGLEWVSAISGSGGNTNYADSVKGRFTISRDNSKNTLYLQMNSLRAEDTAVYYCAKGGSTSSGYRFDYWGQGTLVTVSSGGGGSGGGGSGGGGSQLVLTQSPSASASLGASVKLTCTLSSGHSNYAIAWHQQQPEKGPRFLMNVNRDGSYTKGDGIPDRFSGSSSGAERYLTISSLQSDDEADYYCQTWGTGVQVFGGGTKLTVLTRFVPVFLPAKPTTTPAPRPPTPAPTIASQPLSLRPEACRPAAGGAVHTRGLDFACDIYIWAPLAGTCGVLLLSLVITLYCNHRPPALEWVRSKRSRLLHSDYMNMTPRRPGPTRKHYQPYAPPRDFAAYRSASCTRVKFSRSADAPAYQQGQNQLYNELNLGRREEYDVLDKRRGRDPEMGGKPRRKNPQEGLYNELQKDKMAEAYSEIGMKGERRRGKGHDGLYQGLSTATKDTYDALHMQALPPR
For B5, in test [3], the “Fold Change in TNF-α secretion (hIsMT/T cell co-culture 48 hrs)” value is 521 fold, relative to the mock CD8 T cells condition and the “Fold Change in TNF-α secretion (hIsMT/T cell co-culture 72 hrs)” value is 568 fold, relative to the mock CD8 T cells condition. Further, in test [4], the “Fold Change in IFN-γ secretion (hIsMT/T cell co-culture 48 hrs)” value is 269 fold, relative to the mock CD8 T cells condition and the “Fold Change in IFN-γ secretion (hIsMT/T cell co-culture 72 hrs)” value was 294 fold, relative to the mock CD8 T cells condition.

B6: hg012-C1 scFv (scFv)
scFv: QVQLVQSGAEVKKPGESLKISCKGSGYSFTSYWIGWVRQMPGKGLEWMGIIYPGDSGTRYSPSFQGQVTISADKSISTAYLQWSSLKASNTAMYYCARQQGAGAFDIWGQGTMVTVSSGSASAPKLEEGEFSEARVQSALTQPPSASGSPGQSVTISCTGTSRDVGGYNYVSWYQQHPGKAPKLILYEVTKRPSGVPDRFSGSKSGNTASLTISGLQAEDEADYYCSSYTSSSTVVFGGGTKLTVLGQPKAAPSVTLFPPSSAAAGSEQKLISEEDLSHHHHHH
notes: as for B1
Consider B6, for which the figures for the binding result in test [1] and in test [2] were “no binding” and “binds”, respectively.

B7: hg012-E4 scFv (scFv)
scFv: QVTLKESGGGLVQPGRSLRLSCAASGFTFDDYAMHWVRQAPGKGLEWVSGISWNSGSIGYADSVKGRFTISRDNAKNSLYLQMNSLRAEDTALYYCAKGANYDILTGYRKDNWFDPWGQGTLVTVSSGSASAPKLEEGEFSEARVDIVMTQSPATLSLSPGERATLSCRASQSVGSSLAWFQQKPGQAPRLLIYDASNRATGIPARFSGSGSGTDFTLTISSLEPEDFAVYYCQQRSNWPPYTFGQGTKLEIKRTVAAPSVAAAGSEQKLISEEDLSHHHHHH
notes: as for B1
In the case of B7, the results for the binding result in test [1] and in test [2] were “no binding” and “binds”, respectively.

B8: hg012-C8 scFv (scFv)
scFv: QVTLKESGGGLVQPGRSLRLSCAASGFTFDDYAMHWVRQAPGKGLEWVSGISWNSGSIGYADSVKGRFTISRDNAKNSLYLQMNSLRAEDTALYYCAKGANYDILTGYRKDNWFDPWGQGTLVTVSSGSASAPKLEEGEFSEARVDIVMTQTPSTLSASVGDRVTITCRASQTISNWLAWYQQKPGKAPKLLIYKASTLESGVPSRFSGTGSGTEFTLTISSLQPDDFATYFCQQYHSYSRTFGQGTKVDVARTVAAPSVAAAGSEQKLISEEDLSHHHHHH
notes: as for B1
Turning to B8, the values for the binding result in test [1] and in test [2] were “no binding” and “binds”, respectively.

B9: hg012-D3 scFv (scFv)
scFv: QVQLVQSGGGLVQPGRSLRLSCAASGFTFDDYAMHWVRQAPGKGLEWVSGISWNSGSIGYADSVKGRFTISRDNAKNSLYLQMNSLRAEDTALYYCAKGANYDILTGYEYWGQGTLVTVSSGSASAPKLEEGEFSEARVQAVVTQEPSLTVSPGETVTLTCGSSTGAVTSDHHPYWFQQKPGQVPRTLMHDTSTRYSWTPARFSGSIVGGKAALTLSGAQPEDEAEYHCFLYYSGTAIFGGGTKLTVLSQPKAAPSVTLFPPSSAAAGSEQKLISEEDLSHHHHHH
notes: as for B1
Consider B9, for which the binding result was “no binding” in test [1] and “binds” in test [2].

The record behind these values is patent US20240342214A1 (MEDIZINISCHE HOCHSCHULE HANNOVER, published 2024).
